Test results: paper PMC11919277

What was measured:
Test in all cases: co-immunoprecipitation (anti-HA agarose beads), western blot, ImageJ densitometry
Conditions in all cases: three independent experiments; parent: est. 0.97; read off a plot
[1] = target: WT-Clocka, FLAG-tagged (zebrafish Clocka, wild type)
[2] = target: Bmal1a-mut, HA-tagged (zebrafish Bmal1a with the four cetacean-specific BMAL1 mutations)
[3] = target: WT-Bmal1a, HA-tagged (zebrafish Bmal1a, wild type)

Substance “WT-Bmal1a, HA-tagged (zebrafish Bmal1a, wild type) D3E; L456P; H461R; M466T” has a ratio to parent [1] of 1.2.
Work on “m1; m3 Clocka: M724V; S752P; T779A; Bmal1a: D3E; L456P; H461R; M466T” yielded a ratio to parent [2] of 1.6.
“WT-Clocka, FLAG-tagged (zebrafish Clocka, wild type) M724V; S752P; T779A” showed a ratio to parent [3] of 1.6.
